The text below walks through data of patent publication US20250296994A1 (SYSMEX, published 2025).

The target of test [1] is T1, recombinant Crtac1B fragment #7 (negative control) (human, UniProt Q9NQ79 28-606).
T1 construct: also called fCrtac1B (1-606)
T1 sequence: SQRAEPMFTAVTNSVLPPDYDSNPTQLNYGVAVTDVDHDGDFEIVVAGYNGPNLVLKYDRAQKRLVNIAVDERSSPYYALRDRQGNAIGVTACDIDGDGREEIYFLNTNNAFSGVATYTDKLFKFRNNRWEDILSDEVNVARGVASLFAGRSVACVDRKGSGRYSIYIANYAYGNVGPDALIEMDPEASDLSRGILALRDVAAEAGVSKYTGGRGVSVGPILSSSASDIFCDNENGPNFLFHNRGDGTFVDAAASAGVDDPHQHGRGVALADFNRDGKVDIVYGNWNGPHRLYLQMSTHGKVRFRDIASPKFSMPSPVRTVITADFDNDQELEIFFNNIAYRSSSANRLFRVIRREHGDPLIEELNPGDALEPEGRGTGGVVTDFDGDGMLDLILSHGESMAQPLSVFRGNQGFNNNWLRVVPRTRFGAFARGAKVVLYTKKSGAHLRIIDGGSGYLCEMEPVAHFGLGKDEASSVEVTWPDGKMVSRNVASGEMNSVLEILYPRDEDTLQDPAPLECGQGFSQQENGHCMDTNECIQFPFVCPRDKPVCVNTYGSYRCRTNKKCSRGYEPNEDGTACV
The test can be described thus: antigen immobilized ELISA, hybridoma culture supernatant, color development at 655 nm same as plate without antigen. As to the method: (§1) A positive antigen (50 μL) and a negative control (50 μL) were added to each well of a 96 well plate, respectively. Then, the plate was incubated at 4° C. overnight, and the positive antigen and the negative control were immobilized in the well to obtain an antigen immobilized plate. Each well was washed twice with a washing solution (250 μL, 0.05% Tween (registered trademark) 20/20 mM potassium phosphate buffer (pH 7.4), 150 mM NaCl). To each well was added a blocking buffer (250 μL, 5% skim milk/20 mM potassium phosphate buffer (pH 7.4), 150 mM NaCl), and blocked at room temperature for 90 minutes. Culture supernatant (50 μL) of each hybridoma selected by primary screening was added to each well, and the cells were incubated at 37° C. for 1 hour. Each well was washed three times with a washing solution (250 μL). The HRP-labeled anti-mouse IgG antibody (MBL, product number 330) was diluted 1:1,000 with dilution buffer II (1% skim milk/20 mM potassium phosphate buffer (pH 7.4), 150 mM NaCl). A solution (50 μL) of this labeled antibody was added to each well, and the well was incubated at 37° C. for 1 hour. Each well was washed five times with a washing solution (250 μL). Chemical chromogenic substrate solutions (Bio-Rad, TMB Peroxidase EIA Substrate Kit) were added to respective wells at 50 μL, and the plate was allowed to stand at room temperature under shading for 30 minutes. The plate was set in a microplate reader (Thermo Fisher Scientific, Varioskan (registered trademark) Flash), and the color development intensity at 655 nm was measured for each well.
(§2) Reactivity of the monoclonal antibody contained in the culture supernatant of the hybridomas of clones 1B4 and 15C2 to the antigen was confirmed by ELISA using the 7 recombinant Crtac1B fragments described above. A specific operation was the same as that of the antigen immobilized ELISA method of Example 1. For comparison, ELISA was performed in the same manner using a 96 well plate in which no antigen was immobilized.
(§3) In addition, as to these monoclonal antibodies, the color development intensity when the recombinant Crtac1B fragments of #6 and #7 were used was substantially the same as that when a plate without immobilizing the antigen was used.

Test [2] has as its target T2, recombinant Crtac1B fragment #6 (human, UniProt Q9NQ79 28-606).
T2 construct: also called fCrtac1B (1-607)
T2 sequence: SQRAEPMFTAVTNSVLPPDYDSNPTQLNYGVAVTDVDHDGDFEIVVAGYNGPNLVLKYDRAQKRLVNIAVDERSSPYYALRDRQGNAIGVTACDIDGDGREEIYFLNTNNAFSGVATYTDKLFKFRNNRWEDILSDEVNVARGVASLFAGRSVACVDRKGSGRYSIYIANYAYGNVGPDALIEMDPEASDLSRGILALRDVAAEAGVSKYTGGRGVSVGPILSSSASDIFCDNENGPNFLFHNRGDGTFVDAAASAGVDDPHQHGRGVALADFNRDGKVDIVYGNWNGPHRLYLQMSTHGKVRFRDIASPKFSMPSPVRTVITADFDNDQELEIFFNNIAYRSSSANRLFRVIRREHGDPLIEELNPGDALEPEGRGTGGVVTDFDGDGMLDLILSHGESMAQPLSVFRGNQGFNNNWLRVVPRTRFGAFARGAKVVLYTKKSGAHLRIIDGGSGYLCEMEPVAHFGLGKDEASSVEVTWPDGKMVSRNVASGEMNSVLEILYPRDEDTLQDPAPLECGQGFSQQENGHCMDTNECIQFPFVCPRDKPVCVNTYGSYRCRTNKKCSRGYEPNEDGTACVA
The test is described as above. As to the method:
as §1, §2, §3

For test [3], the target named is T3, antigen peptide P3 (BSA conjugate in the primary screening) (human, NH2-PEG6 at the N-terminus; C-terminal amide; disulfide bond between the two cysteine residues; carrier protein (BSA in the screening ELISA, KLH for immunization) conjugated to the N-terminal amino …).
T3 peptide: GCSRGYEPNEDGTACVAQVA
The test can be described thus: primary screening ELISA, BSA-conjugated antigen peptide immobilized, hybridoma culture supernatant. As to the method:
In order to select hybridomas producing monoclonal antibodies reactive to the antigen peptide, the culture supernatant of each hybridoma was measured by ELISA. In the primary screening, as a positive antigen, a peptide to which BSA was conjugated was used as a carrier protein for each of the antigen peptides P1, P2 and P3. Specific operations were as follows.
The positive antigen was diluted with PBS to a concentration of 1 μg/mL. Positive antigen (50 μL) was added to each well of a 96 well plate. Then, the plate was incubated at 4° C. for 17 hours, and a positive antigen was immobilized in the well to obtain an antigen immobilized plate. Each well was washed three times with PBS (250 μL). To each well was added a blocking buffer (250 μL, 0.5% skim milk/PBS) and blocked at room temperature for 1 hour. Culture supernatant (50 μL) of each hybridoma was added to each well, and the cells were incubated at room temperature for 1 hour. Each well was washed three times with PBS (250 μL). An ALP-labeled anti-mouse IgG goat antibody (SBI, product number 1030-04) was diluted 1:2,500 with PBS. A solution (50 μL) of this labeled antibody was added to each well, and the well was incubated at room temperature for 30 minutes. Each well was washed three times with PBS (250 μL). […] The plate was set in a microplate reader, and the emission intensity was measured for each well.
On the technique in general: ELISA stands for enzyme-linked immunosorbent assay.

B1: 15C2 antibody (monoclonal antibody derived from the hybridoma of clone 15C2) (antibody, mouse IgG1, kappa, V domains shown)
VH: EVQLQQFGAELVKPGASVKISCKASGYTFTDYNMDWVKQSHGKSLEWIGDINPNYDSSSYNQKFKGKATLTVDKSSSTAYMELRSLTSEDTAVYYCTRSGGTYWGQGTLVTVSA
VL: DIQMNQSPSSLSASLGDTITITCHASQNINVWLSWYQQKPGNIPKLLIYKASNLHTGVPSRFSGSGSGTGFSLTISSLQPEDIATYYCQQAQSYPRTFGGGTKLEIKR
notes: Mouse IgG1; Used as hybridoma culture supernatant (ELISA) or purified from supernatant (IB, IP); also called anti-Crtac1B antibody; antibody of the present embodiment
Turning to B1, the binding result in test [1] is “no binding”; in test [2] it was “no binding”; in test [3] it was “binds”.
